Patent US10556944B2, “Fab region-binding peptide” (priority 2013, dated 2020)
Where no end group is shown, it is not given here.

Legend:
[1] = biological target: T1, anti-TNFα antibody-Fab (IgG-Fab derived from anti-TNFα monoclonal antibody, adalimumab) (Homo sapiens, UniProt P01834+P01857); experiment: Biacore 3000 surface plasmon resonance, affinity of SpG-β1 mutants for immobilized IgG-Fab; type: binding
T1 construct: cleaving a humanized monoclonal IgG formulation as a starting material into a Fab fragment and an Fc fragment by papain; purchased
Procedure: (§1) The affinity of each of the SpG-β1 mutants produced in Example 1 (2) for the IgG-Fab was analyzed by using a biosensor: Biacore 3000 using surface plasmon resonance principle (manufactured by GE Healthcare Bioscience). In this example, the IgG-Fab produced in Example 2 (1) was immobilized on a sensor chip and each peptide was added on the chip. The interaction between the IgG-Fab and the peptide was detected. The IgG-Fab was immobilized on the sensor chip CM5 by amine coupling using N-hydroxysuccinimide (NHS) and N-ethyl-N′-(3-dimethylaminopropyl)carbodiimide hydrochloride (EDC), and ethanolamine was used for blocking (all the sensor chips and the immobilization reagents were manufactured by GE Healthcare Bioscience). The IgG-Fab solution was about 10-fold diluted in an immobilization buffer (10 mM CH3COOH—CH3COONa, pH 4.5) and the IgG-Fab was immobilized on the sensor chip in accordance with the protocol attached to the Biacore 3000. Further, a reference cell to be used as a negative control was also prepared by immobilizing ethanolamine for another flow cell on the chip after activation by EDC/NHS. Various SpG-31 mutants were appropriately prepared at concentrations of 0.1 to 100 μM by using a running buffer (20 mM NaH2PO4—Na2HPO4, 150 mM NaCl, 0.005% P-20, pH 7.4). Each peptide solution was added on the sensor chip at a flow rate of 40 μL/minute for 60 seconds. A sensorgram of the binding reaction at 25° C. was sequentially plotted during the addition (binding phase, 60 seconds) and after the addition (dissociation phase, 60 seconds). After each sensorgram determination, the sensor chip was regenerated by adding 20 mM NaOH (for 30 seconds).
The affinity of the SpG-β1 mutant for the IgG-Fab was measured in the same manner as in the experiment of Example 2.
The affinity of the SpG-β1 mutant for the IgG-Fab was measured in the same manner as in the experiment of Example 3. In this experiment, the measurement was performed on the GST-cleaved type after the GST cleavage (Pep-). Further, not only one domain type (Pep.1d) but also one domain type with Cys at the C-terminus (Pep.1dC) and two domain type with Cys at the C-terminus (Pep.2dC) were used to perform the experiment.

[2] = system: anti-Her2antibody-Fab (IgG-Fab derived from anti-Her2 monoclonal antibody, Trastuzumab); experiment: as above; type: binding, human; conditions: Table 1, Example 2, GST-fused one-domain peptide; for kon: 25° C., pH 7.4; for KA: KA=kon/koff, 1:1 binding model; for KA Vs. Wild: fold of wild-type KA
Procedure: The Fab fragment was prepared by cleaving a humanized monoclonal IgG formulation as a starting material into a Fab fragment and an Fc fragment by papain, and separating and purifying only the Fab fragment.
Specifically, a humanized monoclonal IgG formulation (Herceptin, manufactured by Chugai Pharmaceutical Co., Ltd., in the case of anti-Her2 monoclonal antibody) was dissolved in a papain digestion buffer (0.1 M AcOH—AcONa, 2 mM EDTA, 1 mM cysteine, pH 5.5). Papain immobilized agarose: Papain Agarose from papaya latex (manufactured by Sigma) was added to the solution and the mixture was incubated at 37° C. for about 8 hours while being mixed with a rotator. The IgG-Fab was collected from flow-through fractions by affinity chromatography using a KanCapA column (manufactured by Kaneka Corporation). Thus, the IgG-Fab was separated and purified from the reaction solution (containing both the Fab fragment and the Fc fragment), which had been separated from the papain immobilized agarose. The separated IgG-Fab solution was purified by gel filtration chromatography using the Superdex 75 10/300 GL column (a standard buffer was used for equilibration and separation) to obtain an IgG-Fab solution.
as §1

[3] = Table 1, Example 2, GST-fused one-domain peptide, 25° C., pH 7.4
[4] = Table 1, Example 2, GST-fused one-domain peptide, KA=kon/koff, 1:1 binding model
[5] = Table 1, Example 2, fold of wild-type KA, GST-fused one-domain peptide
[6] = Table 2, Example 3, GST-fused one-domain peptide
[7] = Table 2, Example 3, GST-fused one-domain peptide, 25° C., pH 7.4
[8] = Table 2, Example 3, fold of wild-type KA, GST-fused one-domain peptide
[9] = Table 3, Example 4, GST-cleaved type (Pep-), constructs Pep.1d, Pep.1dC, Pep.2dC
[10] = Table 3, Example 4, fold of wild-type KA of the same construct type

K13T/E19I/V39I: GST-fused one-domain SpG-β1 mutant, amino acid SEQ ID NO: 19 (TTYKLILNGKTLTGETTTIAVDAATAEKVFKQYANDNGIDGEWTYDDATKTFTVTE; also: GST-fused)
kon [1, 3]: 145000 s/M | KA [1, 4]: 2.74e+06 M⁻¹ | KA Vs. Wild [1, 5]: 4.3 | kon [2]: 222000 s/M | KA [2]: 2.83e+06 M⁻¹ | KA Vs. Wild [2]: 5.2

K10R/K13T/K28Q/F30L/Q32R: GST-fused one-domain SpG-β1 mutant, amino acid SEQ ID NO: 17 (TTYKLILNGRTLTGETTTEAVDAATAEQVLKRYANDNGVDGEWTYDDATKTFTVTE; also: GST-fused, end not given here)
KA [2]: 1.72e+06 M⁻¹ | KA Vs. Wild [2]: 3.2

K13T/E19I/F30L/D47A/K50E: GST-fused one-domain SpG-β1 mutant, amino acid SEQ ID NO: 65 (TTYKLILNGKTLTGETTTIAVDAATAEKVLKQYANDNGVDGEWTYDAATETFTVTE; also: GST-fused)
KA [1, 6]: 1.14e+06 M⁻¹ | koff [1, 7]: 0.0062 s⁻¹ | kon [1, 7]: 70900 s/M | KA Vs. Wild [1, 8]: 3.1

K13T/D22N/A23T/T25S/F30L/A48T: GST-fused one-domain SpG-β1 mutant, amino acid SEQ ID NO: 73 (TTYKLILNGKTLTGETTTEAVNTASAEKVLKQYANDNGVDGEWTYDDTTKTFTVTE; also: GST-fused)
KA [1, 6]: 1.06e+06 M⁻¹ | koff [1, 7]: 0.0098 s⁻¹ | kon [1, 7]: 104000 s/M | KA Vs. Wild [1, 8]: 2.8

Pep.2dC K13T/E19I/V21D/T25M/F30L/Y33F/N35F/D47A (TTYKLILNGKTLTGETTTIADDAAMAEKVLKQFAFDNGVDGEWTYDAATKTFTVTE)
KA [1, 9]: 9.68e+06 M⁻¹ | koff [1, 9]: 0.0058 s⁻¹ | kon [1, 9]: 55700 s/M | KA Vs. Wild [1, 10]: 29

K13T/V21A/F30L/Y33F/D40E: GST-fused one-domain SpG-β1 mutant, amino acid SEQ ID NO: 51 (TTYKLILNGKTLTGETTTEAADAATAEKVLKQFANDNGVEGEWTYDDATKTFTVTE; also: GST-fused)
KA [1, 6]: 1.78e+06 M⁻¹ | koff [1, 7]: 0.0078 s⁻¹ | kon [1, 7]: 139000 s/M | KA Vs. Wild [1, 8]: 4.8

K13T/E19I/F30L/Y33F/V39I/D47H: GST-fused one-domain SpG-β1 mutant, amino acid SEQ ID NO: 23 (TTYKLILNGKTLTGETTTIAVDAATAEKVLKQFANDNGIDGEWTYDHATKTFTVTE; also: GST-fused)
KA [1, 6]: 2.06e+06 M⁻¹ | koff [1, 7]: 0.0039 s⁻¹ | kon [1, 7]: 79400 s/M | KA Vs. Wild [1, 8]: 5.5

K13T/T18A/E19V/F30L/Y33F: GST-fused one-domain SpG-β1 mutant, amino acid SEQ ID NO: 67 (TTYKLILNGKTLTGETTAVAVDAATAEKVLKQFANDNGVDGEWTYDDATKTFTVTE; also: GST-fused)
KA [1, 6]: 2.85e+06 M⁻¹ | koff [1, 7]: 0.0033 s⁻¹ | kon [1, 7]: 93600 s/M | KA Vs. Wild [1, 8]: 7.6

K13T/E19I/K28R/F30L/Y33F: GST-fused one-domain SpG-β1 mutant, amino acid SEQ ID NO: 27 (TTYKLILNGKTLTGETTTIAVDAATAERVLKQFANDNGVDGEWTYDDATKTFTVTE; also: GST-fused)
KA [1, 6]: 2.02e+06 M⁻¹ | kon [1, 7]: 85500 s/M | KA Vs. Wild [1, 8]: 5.4

K13T/E19I/F30L/D47N: GST-fused one-domain SpG-β1 mutant, amino acid SEQ ID NO: 43 (TTYKLILNGKTLTGETTTIAVDAATAEKVLKQYANDNGVDGEWTYDNATKTFTVTE; also: GST-fused)
KA [1, 6]: 1.27e+06 M⁻¹ | koff [1, 7]: 0.0073 s⁻¹ | kon [1, 7]: 92600 s/M | KA Vs. Wild [1, 8]: 3.4

K13T/E19I/K28I/F30L/Y33F/E42Q/D47Y: GST-fused one-domain SpG-β1 mutant, amino acid SEQ ID NO: 59 (TTYKLILNGKTLTGETTTIAVDAATAEIVLKQFANDNGVDGQWTYDYATKTFTVTE; also: GST-fused)
KA [1, 6]: 1.45e+06 M⁻¹ | koff [1, 7]: 0.0063 s⁻¹ | kon [1, 7]: 91000 s/M | KA Vs. Wild [1, 8]: 3.9

K13T/E19I/F30L/Y33F: GST-fused one-domain SpG-β1 mutant, amino acid SEQ ID NO: 47 (TTYKLILNGKTLTGETTTIAVDAATAEKVLKQFANDNGVDGEWTYDDATKTFTVTE; also: GST-fused)
KA [1, 6]: 1.59e+06 M⁻¹ | koff [1, 7]: 0.0067 s⁻¹ | kon [1, 7]: 106000 s/M | KA Vs. Wild [1, 8]: 4.3

K13T/F30L/D36G (TTYKLILNGKTLTGETTTEAVDAATAEKVLKQYANGNGVDGEWTYDDATKTFTVTE)
KA [2]: 3.17e+06 M⁻¹ | KA Vs. Wild [2]: 5.8

K13T/E19I/K28I/F30L/N35F: GST-fused one-domain SpG-β1 mutant, amino acid SEQ ID NO: 57 (TTYKLILNGKTLTGETTTIAVDAATAEIVLKQYAFDNGVDGEWTYDDATKTFTVTE; also: GST-fused)
KA [1, 6]: 1.4e+06 M⁻¹ | koff [1, 7]: 0.0063 s⁻¹ | kon [1, 7]: 88000 s/M | KA Vs. Wild [1, 8]: 3.7

Pep.1dC K13T/T18A/E19I/V21A/K28I/F30L/Y33F/V39I: SpG-β1 mutant, SEQ ID NO: 85, GST-cleaved one domain type with Cys at the C-terminus (TTYKLILNGKTLTGETTAIAADAATAEIVLKQFANDNGIDGEWTYDDATKTFTVTE; C-terminal Cys; SpG mutant)
KA [1, 9]: 9.11e+06 M⁻¹ | koff [1, 9]: 0.0097 s⁻¹ | kon [1, 9]: 88300 s/M | KA Vs. Wild [1, 10]: 51

K10R/K13T/E15Q/K28R/F30L/D36G/E42V: GST-fused one-domain SpG-β1 mutant, amino acid SEQ ID NO: 69 (TTYKLILNGRTLTGQTTTEAVDAATAERVLKQYANGNGVDGVWTYDDATKTFTVTE; also: GST-fused, end not given here)
KA [1, 6]: 3.3e+06 M⁻¹ | koff [1, 7]: 0.0035 s⁻¹ | kon [1, 7]: 115000 s/M | KA Vs. Wild [1, 8]: 8.8

Pep.1d K13T/E19I/V21D/T25M/F30L/Y33F/N35F/D47A (TTYKLILNGKTLTGETTTIADDAAMAEKVLKQFAFDNGVDGEWTYDAATKTFTVTE)
KA [1, 9]: 4.24e+06 M⁻¹ | koff [1, 9]: 0.0257 s⁻¹ | kon [1, 9]: 109000 s/M | KA Vs. Wild [1, 10]: 29 | KA Vs. Wild ([1]; Table 3, Example 4, fold of wild-type KA of the same construct type, listed as Pep-SpGβ1-K13T/E19I/V21D/T25M/F30L/Y33F/N35F/D47A.1d): ~30 | affinity / binding ability for the IgG-Fab compared with the wild-type (in words) ([1]; Tables 1 and 3, FIGS. 2 and 3): significantly higher affinity for the IgG-Fab than Pep-SpGβ1-Wild.1d

K13T/E19I/A23T/T25M/F30L: GST-fused one-domain SpG-β1 mutant, amino acid SEQ ID NO: 49 (TTYKLILNGKTLTGETTTIAVDTAMAEKVLKQYANDNGVDGEWTYDDATKTFTVTE; also: GST-fused)
KA [1, 6]: 1.12e+06 M⁻¹ | koff [1, 7]: 0.0091 s⁻¹ | kon [1, 7]: 102000 s/M | KA Vs. Wild [1, 8]: 3.0

Pep.2dC K13T/T18A/E19I/V21A/K28I/F30L/Y33F/V39I (TTYKLILNGKTLTGETTAIAADAATAEIVLKQFANDNGIDGEWTYDDATKTFTVTE)
KA [1, 9]: 1.02e+07 M⁻¹ | koff [1, 9]: 0.0062 s⁻¹ | kon [1, 9]: 63900 s/M | KA Vs. Wild [1, 10]: 30

K13T/E19I/F30L: GST-fused one-domain SpG-β1 mutant, amino acid SEQ ID NO: 15 (TTYKLILNGKTLTGETTTIAVDAATAEKVLKQYANDNGVDGEWTYDDATKTFTVTE; also: GST-fused)
kon [1, 3]: 92300 s/M | KA [1, 4]: 1.8e+06 M⁻¹ | KA Vs. Wild [1, 5]: 2.8 | kon [2]: 141000 s/M | KA [2]: 1.99e+06 M⁻¹ | KA Vs. Wild [2]: 3.6

K13T/E15Q/E19I/E27D/V39I/D47H: GST-fused one-domain SpG-β1 mutant, amino acid SEQ ID NO: 77 (TTYKLILNGKTLTGQTTTIAVDAATADKVFKQYANDNGIDGEWTYDHATKTFTVTE; also: GST-fused)
KA [1, 6]: 1.85e+06 M⁻¹ | koff [1, 7]: 0.0067 s⁻¹ | kon [1, 7]: 124000 s/M | KA Vs. Wild [1, 8]: 4.9

K13T/E19I/F30L/Y45F/D47Y: GST-fused one-domain SpG-β1 mutant, amino acid SEQ ID NO: 83 (TTYKLILNGKTLTGETTTIAVDAATAEKVLKQYANDNGVDGEWTFDYATKTFTVTE; also: GST-fused)
KA [1, 6]: 1.39e+06 M⁻¹ | koff [1, 7]: 0.007 s⁻¹ | kon [1, 7]: 97700 s/M | KA Vs. Wild [1, 8]: 3.7

K13T/E15T/E19I/T25M/E27G/F30L/N35Y: GST-fused one-domain SpG-β1 mutant, amino acid SEQ ID NO: 63 (TTYKLILNGKTLTGTTTTIAVDAAMAGKVLKQYAYDNGVDGEWTYDDATKTFTVTE; also: GST-fused)
KA [1, 6]: 1.28e+06 M⁻¹ | koff [1, 7]: 0.0063 s⁻¹ | kon [1, 7]: 80700 s/M | KA Vs. Wild [1, 8]: 3.4

K13T/E19I/K28N/F30L/D40V: GST-fused one-domain SpG-β1 mutant, amino acid SEQ ID NO: 33 (TTYKLILNGKTLTGETTTIAVDAATAENVLKQYANDNGVVGEWTYDDATKTFTVTE; also: GST-fused)
KA [1, 6]: 1.43e+06 M⁻¹ | kon [1, 7]: 108000 s/M | KA Vs. Wild [1, 8]: 3.8

K13T/E19I/V21N/K28I/F30L: GST-fused one-domain SpG-β1 mutant, amino acid SEQ ID NO: 37 (TTYKLILNGKTLTGETTTIANDAATAEIVLKQYANDNGVDGEWTYDDATKTFTVTE; also: GST-fused)
KA [1, 6]: 3.01e+06 M⁻¹ | koff [1, 7]: 0.0071 s⁻¹ | kon [1, 7]: 214000 s/M | KA Vs. Wild [1, 8]: 8.1
